{"source": "patent US20240132615A1", "key": {"soluble BCMA": {"target": "soluble BCMA (UniProt Q02223)", "sequence (Q02223 1-54 limits assumed)": "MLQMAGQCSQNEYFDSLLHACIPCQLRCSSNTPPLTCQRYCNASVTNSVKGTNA", "assay": "cell-based or functional assay"}, "[1]": {"target": "human CD38 on multiple myeloma cells (human) (UniProt P28907)", "assay": "flow cytometry on NCI-H929 BCMA KO cells (BCMA-negative, CD38-positive)"}}}
{"substance": "teclistamab (bispecific antibody)", "values": [{"measurement": "Fold difference to no soluble factor condition (EC50 from % Cytotoxicity), sBCMA", "setting": "soluble BCMA", "result": 75, "unit": "fold"}, {"measurement": "Fold difference to no soluble factor condition (EC50 from % Killing to No Ab), sBCMA", "setting": "soluble BCMA", "result": 30, "unit": "fold"}, {"measurement": "Maximum binding (RFI)", "setting": "[1]", "result": 104, "unit": "RFI"}]}
{"substance": "alnuctamab (bispecific antibody)", "values": [{"measurement": "Fold difference to no soluble factor condition (EC50 from % Cytotoxicity), sBCMA", "setting": "soluble BCMA", "result": 380, "unit": "fold"}, {"measurement": "Fold difference to no soluble factor condition (EC50 from % Killing to No Ab), sBCMA", "setting": "soluble BCMA", "result": 367, "unit": "fold"}, {"measurement": "Maximum binding (RFI)", "setting": "[1]", "result": 101, "unit": "RFI"}]}
